Consider one protein from article PMC2995167 (The Journal of Cell Biology, 2010).

This data set deals with the molecule itself. The data set is described as follows: bead aggregation assay.

B1: NcadEC-Fc (Fc fusion)
chain: DWVIPPVNVLENSRKQFPEELVKIQSDKDKSNTLRYSVTGPGADQNPTGLFIIDPISGLLSVTKPLDREHIPNFHLRAHAVDINGNQMENPIDIIINVIDMNDNRPEFTHQIWNGTVDEGAKPGTFVMTVTSQDKDDPNTANGMLRYKILSQTPESPSSNMFTINNKTGKIITVAAGLDREKVPQYTLIIQATDMEGNPTYGLSNTATAVIRLLDVNDNAPEFTRETFHGEVPENRVNVIVTNLTVTDKDEPGTPAWNAVYRIISGDPTGRFSIPTDPVTNEGLVTVVKPVDFEMNRSFMLTVVADNEVPLASGIHRTRQSTATVSIRVIDVNESPNFDPNPKQIKLEEGLPQWSMLTTFTAHDPDRYMQQTISYSKLYDPANWLEIDPNNGRISTIAVLDRESPYVKNNLYNATFMASDNGVPRASGTGTLQIYLLDINDNAPRVFPQEAEVCERPEPNAINITAVDGDLNPNAGPYAFELPNRPSDIRRNWTLTRISGDHAQLSLKISYLESGIYELPISITDSGNLPMSNTTYLRIKVCQCDHHGDCVDMERIMAAGLGTGA
Consider B1, for which the binding result is recorded as “binds”.
